This note sets out measurements from publication PMC10024333 (Iranian Journal of Pharmaceutical Research : IJPR, 2022).

In this test the target is T1, Trx-CD20 (thioredoxin-tagged CD20/G4S cassette: Trx, ECL1, (G4S)3 linker, ECL2, C-terminal His-tag) (Homo sapiens, UniProt P11836).
T1 chain: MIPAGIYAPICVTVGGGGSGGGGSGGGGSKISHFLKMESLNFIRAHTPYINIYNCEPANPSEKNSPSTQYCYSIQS
Put plainly: ELISA.

B1: Zytux (rituximab, Aryogen Pharmed, Iran) (antibody, V domains shown)
VH: QVQLQQPGAELVKPGASVKMSCKASGYTFTSYNMHWVKQTPGRGLEWIGAIYPGNGDTSYNQKFKGKATLTADKSSSTAYMQLSSLTSEDSAVYYCARSTYYGGDWYFNVWGAGTTVTVSA
VL: QIVLSQSPAILSASPGEKVTMTCRASSSVSYIHWFQQKPGSSPKPWIYATSNLASGVPVRFSGSGSGTSYSLTISRVEAEDAATYYCQQWTSNPPTFGGGTKLEIK
The molecule B1 gave a Ka of 2.66e+12 M⁻¹.
